Test results reported in patent publication US20110014656A1.

Legend:
[1] = molecular target: T1, human IL-17 receptor (IL-17RA) on transfected cells (human), Q96F46; assay: saturation binding, iodinated cytokine on transfected BHK cells; saturation binding, iodinated hIL-17F on hIL-17RA BHK cells; details: remark: other sources report otherwise
[2] = molecular target: T1, human IL-17 receptor (IL-17RA) on …; assay: saturation binding, iodinated cytokine on transfected BHK cells; saturation binding; fold comparison with the other Kd values of Table 1; details: remark: other sources report otherwise

T1 sequence (Q96F46 33-320 limits assumed): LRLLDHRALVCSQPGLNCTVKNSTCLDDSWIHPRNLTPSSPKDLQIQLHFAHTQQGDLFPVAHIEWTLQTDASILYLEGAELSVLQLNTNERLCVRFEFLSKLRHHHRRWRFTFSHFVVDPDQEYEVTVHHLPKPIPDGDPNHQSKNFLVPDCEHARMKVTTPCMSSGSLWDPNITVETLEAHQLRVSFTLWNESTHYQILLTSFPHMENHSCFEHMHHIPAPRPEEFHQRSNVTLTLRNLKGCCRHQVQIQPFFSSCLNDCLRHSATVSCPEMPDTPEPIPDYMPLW

- Kd [1]: 1500 nM
- fold lower affinity relative to the other affinities measured [2]: 1000 fold
B1: human IL-17F, Q96PD4 31-163 (ligand)
chain: RKIPKVGHTFFQKPESCPPVPGGSMKLDIGIINENQRVSMSRNIESRSTSPWNYTVTWDPNRYPSEVVQAQCRNLGCINAQGKEDISMNSVPIQQETLVVRRKHQGCSVSFQLEKVLVTVGCTCVTPVIHHVQ
